Measurements taken from the nanobody polyreactivity screen of Harvey et al. (2022).

Assay: yeast display, Sf9 membrane polyspecificity reagent, FACS + sequencing; frameworks hold sequencing errors
Outline: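 Synthetic nanobody libraries on Saccharomyces cerevisiae BJ5465 were galactose-induced for 36–48 hours, stained 1 hour at 4 °C with 10% biotinylated, detergent-solubilized Sf9 membrane reagent and enriched on streptavidin microbeads. FACS then separated cells into low and high (top ~1%) gates by anti-HA (expression) and streptavidin (reagent binding) fluorescence. Genes were colony-PCR amplified, MiSeq 2 × 250 sequenced and CDR-length filtered. A clone's polyreactivity label is that of its gate of origin.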
With “QVQLVESGGGLVQAGGSLRLSCAASGSTFTVNCMGWYRQAPGKERELVASITWSGGSTYYADSVKGRFTISRDNAKNTVYFQMNSLKPEDTAVYYCAADEKLYITGYDYWGQGTQVTVSS” the “polyreactivity (PSR sort gate)” value was “low polyreactivity”. For “QVQLVESGGGLVQAGGSLRLSCAASGSTFTVNDMGWYRQAPGKERELVAAITQRDGRTFYADSVKGRFTISRDNAKNTVYLQMNSLKPEDTAVYYCAATFIQVVVNVQLYDYDYWGQGTQVTVSS”, the “polyreactivity (PSR sort gate)” value was “low polyreactivity”. With “QVQLVESGGGLVQAGGSLRLSCAASGSTFTVNGMGWYRQAPGKERELVASITWSGGSTYYADSVKGRFTISRDNAKNTVYLQLNSLKPEDTAVYYCNAVDTRVPSIRFDYWGQRTQVTVSS” the “polyreactivity (PSR sort gate)” value was “low polyreactivity”. With “QVQLVESGGGLVQAGGSLRLSCAASGSTFTVNGMGWYRQATGKESELVAAIDGGDGSTYYADSVKGRFTISRDNAKNTVYLQMNSLKPEDTAVYYCAADPPGFTQYGYWGQGTQVTVSS” the “polyreactivity (PSR sort gate)” value was “low polyreactivity”. For “QVQLVESGGGLVQAGGSLRLSCAASGSTFTVYAMGWYRQAPGKERELVAAISSSTGSTYYADSVKGRFTISRDNAKNTVYLQMNSLKPEDTAVSYCAADVYHVTTSSYTEFEYWGQGTQVTVSS”, the “polyreactivity (PSR sort gate)” value was “low polyreactivity”. In the case of “QVQLVESGGGLVQAGGSLRLSCAASGSTFTVYAMGWYRQAPGKERELVAAISWSGGSTYYADSVKGRFTISRDNAKNTVYLQMNSLKPEDTAVYYCAVVIYWRTGEYDYWGQGTQVTVSS”, the “polyreactivity (PSR sort gate)” value is reported as “low polyreactivity”. For “QVQLVESGGGLVQAGGSLRLSCAASGSTFTVYAMGWYRQAPGKERELVAGISSGGSTYYADSVKGRFTISRDNAKNTVYLQMNSLKPEDTAVYYCAALRVRVPLGTYGYWGQVTQVTVSS”, the “polyreactivity (PSR sort gate)” value was “high polyreactivity”. With “QVQLVESGGGLVQAGGSLRLSCAASGSTFTWYAMGWYRQAPGKEGELVAAISRGGSTNYADSVKGRFTISRDNAKNTVYLQMNSLKPEDTAVYYCAAESYWRDDYWGQGTQVTVSS” the “polyreactivity (PSR sort gate)” value was “low polyreactivity”. With “QVQLVESGGGLVQAGGSLRLSCAASGSTFTYNAMGWYRQAPGKERELVAAIRSNGGSTYYADSVKGRFTISRDNAKNTVYLQMNSLKPEDTAVYYCAARLSVLGGYRGRNAWRFDHWGLGTQVTVSS” the “polyreactivity (PSR sort gate)” value was “high polyreactivity”. For “QVQLVESGGGLVQAGGSLRLSCAASGSTFTYNTLVWYRQAPGKERELVAAISWGGGGTYYADSVKGRFTISRDNAKNTVYLQMNSLKPEDTAVYYCNADPWWDYGTFDYWGQGTQVTVSS”, the “polyreactivity (PSR sort gate)” value was “low polyreactivity”. In the case of “QVQLVESGGGLVQAGGSLRLSCAASGSTFTYYDMGWYRQAPGKERELVATIDSTTRTYYADSVKGRFTISRDNAKNTVYLQMNSLKPEDTAVYYCAADLTWAYFYYLFYRYDYWGQGTQVTVSS”, the “polyreactivity (PSR sort gate)” value is reported as “low polyreactivity”. For “QVQLVESGGGLVQAGGSLRLSCAASGSTFTYYTMAWYRQAPGKERELVAAISWSGGRTYYADSVKGRFTISRDNAKNTVYLQMNSLKPEDTAVYYCAAGPAPGHDSWGQGTQVTVSS”, the “polyreactivity (PSR sort gate)” value was “high polyreactivity”. For “QVQLVESGGGLVQAGGSLRLSCAASGSTFVANAMGWYIQAPGKERELVAAISFNRGGNTYYADSVKGRFTISRDNAKNTVYLQMNSLKPEDTAVYYCAAAQRELPTVRRNYWGQGTQVTVSS”, the “polyreactivity (PSR sort gate)” value was “high polyreactivity”. With “QVQLVESGGGLVQAGGSLRLSCAASGSTFVANAMGWYRQAPGKERELVAAISGAGGGTYYADSVKGRFTISRDNAKNTVYLQMNSLKPEDTAVYYCAAVPWYYYHYWVSHPYGGDYWGQGTQVTVSS” the “polyreactivity (PSR sort gate)” value was “low polyreactivity”. With “QVQLVESGGGLVQAGGSLRLSCAASGSTFVAYAKGWYRQAPGKETEWDASISGSGGTTNYADSVKGRFTISRDNAKNTVYLQMNSLKPEDTAVYYCARRYYSVKSRYALNSWGQGTQVTVSS” the “polyreactivity (PSR sort gate)” value was “high polyreactivity”. With “QVQLVESGGGLVQAGGSLRLSCAASGSTFVAYAMGWYRQAPGKERELVAAITYSGGRTYYADSVKGRFTISRDNAKNTVYLQMNSLKPEDTAVYSCAATGVFRDEYWGQGTQVTVSS” the “polyreactivity (PSR sort gate)” value was “low polyreactivity”. For “QVQLVESGGGLVQAGGSLRLSCAASGSTFVDYAMGWYRPAPGKERELVAAINSDGGGTYYADSVKGRFTISRDNAKNTVYLQMNSLKPEDTAVYYCAAVGYTTYRRYDYWGQGTQVTVSS”, the “polyreactivity (PSR sort gate)” value was “low polyreactivity”. With “QVQLVESGGGLVQAGGSLRLSCAASGSTFVFYAMGWYRQAPGKERELVAGISDSGGNTYYADSVKGRFTISRDNAKNTVYLQMNSLKPEDTAVYYCATRYPYYPFYVGIYELDYWGQGTQVTVSS” the “polyreactivity (PSR sort gate)” value was “low polyreactivity”. For “QVQLVESGGGLVQAGGSLRLSCAASGSTFVFYAMGWYRQAPRKERELVAAITIGGSTYADSVKGRFTISRDNAKNTVYLQMNSLNPEDTAVYYCNADDAPSSFTTLDFTFDYWGQGTQVTVSS”, the “polyreactivity (PSR sort gate)” value was “low polyreactivity”. With “QVQLVESGGGLVQAGGSLRLSCAASGSTFVFYTMGWYRQAPGKEREFVASISGSGGSTYYADSVKGRFTISRDNAKNTVYLQMNSLKPEDTAVYYCGAGYPYYYWTPYYYWGQGTQVTVSS” the “polyreactivity (PSR sort gate)” value was “high polyreactivity”. With “QVQLVESGGGLVQAGGSLRLSCAASGSTFVGNAMGCYRQAPVKERELVATISNSGGHTFYADSVKGRFTISRDNAKNTVYLQMNSLKPEDTAVFYCAASTSGAIRRDGYWGQGTQVTVSS” the “polyreactivity (PSR sort gate)” value was “low polyreactivity”. With “QVQLVESGGGLVQAGGSLRLSCAASGSTFVGNAMGWYRQAPGKERELVAAISRTGGSTYYADSVKGRFTISRDNAKNTVYLQMNSLKPEDTAVYYCNAYTRYSSRRGIGDYWGQGTQVTVSS” the “polyreactivity (PSR sort gate)” value was “high polyreactivity”. In the case of “QVQLVESGGGLVQAGGSLRLSCAASGSTFVGNAMGWYRQAPGKERELVAAITGGGGSTYYADSVKGRFTISRDNAKNTVYLQMNSLKPEDTAVYSCARDRTDYYVWYVRYYYWGQGTQVTVSS”, the “polyreactivity (PSR sort gate)” value is reported as “low polyreactivity”. For “QVQLVESGGGLVQAGGSLRLSCAASGSTFVGNAMGWYRQAPGKERELVAGITSSGTSTYYADSVKGRFTMSRDNAKNSVYLQMNRLKPEDTAVYYCATDDADESYGFELFDYWGLGTQVTVSS”, the “polyreactivity (PSR sort gate)” value was “low polyreactivity”. With “QVQLVESGGGLVQAGGSLRLSCAASGSTFVHNGMGWYRQAPGIDRELVGAITDGGSTYYADSVKGRFTISRDNAKNTVYLQMNSLKPEDTAVYYCAAGYSRYGYFRGYRYYYWGQGTQVTVSS” the “polyreactivity (PSR sort gate)” value was “low polyreactivity”. For “QVQLVESGGGLVQAGGSLRLSCAASGSTFVHYAMGWYRQAPGKERELVAAITISGGRTYYADSVKGRFTISRDNAKNTVYLQMNSLKPEDTAVYYCNADHYHRTWGYDYWGQGTQVTVSS”, the “polyreactivity (PSR sort gate)” value was “low polyreactivity”. In the case of “QVQLVESGGGLVQAGGSLRLSCAASGSTFVINAMGWYRQAPGKERELVAAISFSGDTTYYADSVKGRFTISRDNAKNTVYLQMNSLKPEDTAVYYCAASVTVGISKYGYWGQGTQVTVSS”, the “polyreactivity (PSR sort gate)” value is reported as “high polyreactivity”. With “QVQLVESGGGLVQAGGSLRLSCAASGSTFVINAMGWYRQAPGKERELVAAISYSGDSTYADSVKGRFTISRDNEKNTVYLQMNSLKPEDTAVYYCAKYQYDYYTYDYWGQGTQVTVSS” the “polyreactivity (PSR sort gate)” value was “low polyreactivity”. For “QVQLVESGGGLVQAGGSLRLSCAASGSTFVINAMGWYRQAPGKERELVADIDYRGGSTNYADSVKGRFTISRDNAKNTVYLLMNSLKPEDTAVYYCNKRYVIRRRGYDYWGQGTQVTVSS”, the “polyreactivity (PSR sort gate)” value was “low polyreactivity”. With “QVQLVESGGGLVQAGGSLRLSCAASGSTFVINDMGWYRQAPGKERELVAAITWGSGSTYYADSVKGRFTISRDNAKNTVYLQMNSLKPEDTAVYYCAADVYFGLVGYYAEYNDYWGQGTQVNVSS” the “polyreactivity (PSR sort gate)” value was “low polyreactivity”. In the case of “QVQLVESGGGLVQAGGSLRLSCAASGSTFVIYAMGWYRQAPGKERELVAAIRLGGGSTYYADSVKGRFTISRDNANNTVYLQMNSLKPEDTAVYYCAAEVDQWYYRGYDYWGQGTQVTVSS”, the “polyreactivity (PSR sort gate)” value is reported as “high polyreactivity”. With “QVQLVESGGGLVQAGGSLRLSCAASGSTFVIYAMGWYRQAPGKERELVAAITISGGRTYYADSVKGRFTISRDNAKNTVYLQMNSLKPEDTAVYYCAATVVSTYPYGYGSTFVRDDYWGQGTQVTVSS” the “polyreactivity (PSR sort gate)” value was “low polyreactivity”. With “QVQLVESGGGLVQAGGSLRLSCAASGSTFVIYGMGLYRQEPGKESDIVADITWIGGSTYYADSVKGRFTISRDNAKNTVYLQMKSLKPEDTAVYYCAADAAYLYLYNWYDTEDYYWGQGTLVTVSS” the “polyreactivity (PSR sort gate)” value was “low polyreactivity”. With “QVQLVESGGGLVQAGGSLRLSCAASGSTFVIYGMGWYRQAPGTERELVADITWIGGSTYYADSVKGRFTISRDNAKNTVYLQMNSLKPEDTAVYYCNADVRYGRDHWGQGTQVTVSS” the “polyreactivity (PSR sort gate)” value was “low polyreactivity”. In the case of “QVQLVESGGGLVQAGGSLRLSCAASGSTFVIYTMGWCRQAPGKERELVAAISWSGGITRYADSVKGRFTISRDNAKNTVYLQMNSLKPEDTAVYYCNASQWPSLFDYWGQGTQVTVSS”, the “polyreactivity (PSR sort gate)” value is reported as “low polyreactivity”. In the case of “QVQLVESGGGLVQAGGSLRLSCAASGSTFVNYVMGWYRQAPGKERELVAAISRRGTSTRYADSVKGRFTISRDNAKNTVYLQMNSLKPEDTAVYYCAATRYVGVTGYGYWGQGTQVTVSS”, the “polyreactivity (PSR sort gate)” value is reported as “high polyreactivity”. With “QVQLVESGGGLVQAGGSLRLSCAASGSTFVPNAMGWYRQAPGKERELVAAISRSAGSTYYADSVKGRFTISRDNAKNTVYLQMNSLKPEDTAVYYCAAVSLTYIAYDYWGQGTQVTVSS” the “polyreactivity (PSR sort gate)” value was “high polyreactivity”. For “QVQLVESGGGLVQAGGSLRLSCAASGSTFVPYAMGWYRQAPGKERELVAAISQSGGSTYYADSVKGRYTISRDNAKNTVYLQMTSLKPEYTAVYYCNVDQFRYPEYDYWGQGTQVTVSS”, the “polyreactivity (PSR sort gate)” value was “high polyreactivity”. In the case of “QVQLVESGGGLVQAGGSLRLSCAASGSTFVPYTMGWYRQAPGKERELVAAISSGDSTYYADSVKGRFTISRDNAKNTVYLQMNSLKPEDTAVYYCAADYQWFWVWYGYWGQGTQVTVSS”, the “polyreactivity (PSR sort gate)” value is reported as “high polyreactivity”. With “QVQLVESGGGLVQAGGSLRLSCAASGSTFVPYTMGWYRQAPGKERELVAAMSGSGGTDYADSVKGRFTISRDNAKNTVYLQMNSLKPEDTAVYYCATDGLDFWFIYDYWGQGTQVTVSS” the “polyreactivity (PSR sort gate)” value was “low polyreactivity”.
